Measured values from publication PMC4091835 (Nature structural & molecular biology, 2014).

B1: Human Cdc42 residues 1–178, constitutively active mutant G12V (domain or fragment)
chain: not shown
B3: Full-length human IRSp53 (natural protein, UniProt Q9UQB8-4 1-521, looked up)
chain: MSLSRSEEMHRLTENVYKTIMEQFNPSLRNFIAMGKNYEKALAGVTYAAKGYFDALVKMGELASESQGSKELGDVLFQMAEVHRQIQNQLEEMLKSFHNELLTQLEQKVELDSRYLSAALKKYQTEQRSKGDALDKCQAELKKLRKKSQGSKNPQKYSDKELQYIDAISNKQGELENYVSDGYKTALTEERRRFCFLVEKQCAVAKNSAAYHSKGKELLAQKLPLWQQACADPSKIPERAVQLMQQVASNGATLPSALSASKSNLVISDPIPGAKPLPVPPELAPFVGRMSAQESTPIMNGVTGPDGEDYSPWADRKAAQPKSLSPPQSQSKLSDSYSNTLPVRKSVTPKNSYATTENKTLPRSSSMAAGLERNGRMRVKAIFSHAAGDNSTLLSFKEGDLITLLVPEARDGWHYGESEKTKMRGWFPFSYTRVLDSDGSDRLHMSLQQGKSSSTGNLLDKDDLAIPPPDYGAASRAFPAQTASGFKQRPYSVAVPAFSQGLDDYGARSMSSGSGTLVSTV
B4: CRIB–PR domain of IRSp53 (residues 260–291), synthetic peptide (peptide, UniProt Q9UQB8-4 260-291, looked up)
peptide: Ac-ASKSNLVISDPIPGAKPLPVPPELAPFVGRMS-NH2

Legend:
[1] = biological target: B4; assay: ITC
Full-length human IRSp53 [2] = biological target: B3; assay: ITC
Full-length human IRSp53 [3] = biological target: B3; assay: SEC + other: glycerol gradient sedimentation
[4] = biological target: the molecule itself; assay: SEC + other: glycerol gradient sedimentation
[5] = biological target: B1; assay: ITC
[6] = biological target: B4; assay: ITC

## B1
[1]
  stoichiometry N: 1 Cdc42 per CRIB–PR
Full-length human IRSp53 [2]
  Kd: 16.1 µM
  fold reduction of the enthalpy of binding against CRIB–PR: 3 fold
  stoichiometry N: 1 Cdc42 per CRIB–PR

B2: Human Eps8 (natural protein, UniProt Q12929 1-822, looked up)
chain: MNGHISNHPSSFGMYPSQMNGYGSSPTFSQTDREHGSKTSAKALYEQRKNYARDSVSSVSDISQYRVEHLTTFVLDRKDAMITVDDGIRKLKLLDAKGKVWTQDMILQVDDRAVSLIDLESKNELENFPLNTIQHCQAVMHSCSYDSVLALVCKEPTQNKPDLHLFQCDEVKANLISEDIESAISDSKGGKQKRRPDALRMISNADPSIPPPPRAPAPAPPGTVTQVDVRSRVAAWSAWAADQGDFEKPRQYHEQEETPEMMAARIDRDVQILNHILDDIEFFITKLQKAAEAFSELSKRKKNKKGKRKGPGEGVLTLRAKPPPPDEFLDCFQKFKHGFNLLAKLKSHIQNPSAADLVHFLFTPLNMVVQATGGPELASSVLSPLLNKDTIDFLNYTVNGDERQLWMSLGGTWMKARAEWPKEQFIPPYVPRFRNGWEPPMLNFMGATMEQDLYQLAESVANVAEHQRKQEIKRLSTEHSSVSEYHPADGYAFSSNIYTRGSHLDQGEAAVAFKPTSNRHIDRNYEPLKTQPKKYAKSKYDFVARNNSELSVLKDDILEILDDRKQWWKVRNASGDSGFVPNNILDIVRPPESGLGRADPPYTHTIQKQRMEYGPRPADTPPAPSPPPTPAPVPVPLPPSTPAPVPVSKVPANITRQNSSSSDSGGSIVRDSQRHKQLPVDRRKSQMEEVQDELIHRLTIGRSAAQKKFHVPRQNVPVINITYDSTPEDVKTWLQSKGFNPVTVNSLGVLNGAQLFSLNKDELRTVCPEGARVYSQITVQKAALEDSSGSSELQEIMRRRQEKISAAASDSGVESFDEGSSH
Full-length human IRSp53 [3]
  stoichiometry N: 1 Eps8 per IRSp53 (2:2)

## B3
[4]
  stoichiometry N: 2

## B4
[5]
  Kd: 5 µM

B5: Isolated SH3 domain of IRSp53 (domain or fragment)
chain: NGRMRVKAIFSHAAGDNSTLLSFKEGDLITLLVPEARDGWHYGESEKTKMRGWFPFSYTRVLDS
[6]
  Kd: 114 µM
